According to publication PMC9972960:

Key:
[1] = target: purified vaccine protein with HA from influenza A/PR/8/1934 (H1N1), without the C-terminal trimerization domain (influenza A/PR/8/1934 (H1N1)) (UniProt P03452); assay: SEC
[2] = target: purified vaccine protein with HA from influenza A/PR/8/1934 (H1N1), without the C-terminal trimerization domain (influenza A/PR/8/1934 (H1N1)) (UniProt P03452); assay: native gel or EMSA

purified vaccine protein with HA from influenza A/PR/8/1934 (H1N1), without the C-terminal trimerization domain (from UniProt P03452 18-541)
stoichiometry N [1]: 3 | stoichiometry N [2]: 3
